# Experimental data: the supplement of paper PMC10567573
# B1: VPS39 (parent)
# chain: ITEEKVCMVCKKKIGNSAFARYPN
# Variants of: B1
# Assay: protein stability index of a GFP-peptide fusion (GPS, HEK-293T) (PSI 1-6); higher = more stable
# Conditions: c terminus: a fixed tail appended
# 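Note: lentivirally expressed fusions sorted by FACS into six bins by GFP to DsRed ratio, PSI derived from sequencing read proportions per bin multiplied by bin number.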
row,Variant,protein stability index
1,IGEEKVCMVCKKKIGNSAFARYPN [T2G],2.15
2,IIEEKVCMVCKKKIGNSAFARYPN [T2I],2.43
3,IPEEKVCMVCKKKIGNSAFARYPN [T2P],2.53
4,ISEEKVCMVCKKKIGNSAFARYPN [T2S],2.27
5,IFEEKVCMVCKKKIGNSAFARYPN [T2F],2.9
6,ILEEKVCMVCKKKIGNSAFARYPN [T2L],3.59
7,IMEEKVCMVCKKKIGNSAFARYPN [T2M],2.02
8,IHEEKVCMVCKKKIGNSAFARYPN [T2H],3.16
9,IKEEKVCMVCKKKIGNSAFARYPN [T2K],2.42
10,IAEEKVCMVCKKKIGNSAFARYPN [T2A],2.94
11,IREEKVCMVCKKKIGNSAFARYPN [T2R],2.55
12,IEEEKVCMVCKKKIGNSAFARYPN [T2E],2.72
13,ICEEKVCMVCKKKIGNSAFARYPN [T2C],2.32
14,IVEEKVCMVCKKKIGNSAFARYPN [T2V],2.67
15,IWEEKVCMVCKKKIGNSAFARYPN [T2W],1.77
16,INEEKVCMVCKKKIGNSAFARYPN [T2N],2.79
17,IQEEKVCMVCKKKIGNSAFARYPN [T2Q],3.19
18,IDEEKVCMVCKKKIGNSAFARYPN [T2D],2.92
19,IYEEKVCMVCKKKIGNSAFARYPN [T2Y],2.34
20,ITEEKVCMVAKKKIGNSAFARYPN [C10A],3.13
21,ITEEKVCMVFKKKIGNSAFARYPN [C10F],2.04
22,ITEEKVCMVIKKKIGNSAFARYPN [C10I],2.45
23,ITEEKVCMVGKKKIGNSAFARYPN [C10G],4.21
24,ITEEKVCMVEKKKIGNSAFARYPN [C10E],4.15

row,Variant,protein stability index
1,ITEEKVCMVHKKKIGNSAFARYPN [C10H],3.32
2,ITEEKVCMVDKKKIGNSAFARYPN [C10D],3.67
3,WTEEKVCMVCKKKIGNSAFARYPN [I1W],2.33
4,YTEEKVCMVCKKKIGNSAFARYPN [I1Y],2.49
5,CTEEKVCMVCKKKIGNSAFARYPN [I1C],2.24
6,QTEEKVCMVCKKKIGNSAFARYPN [I1Q],2.91
7,HTEEKVCMVCKKKIGNSAFARYPN [I1H],2.59
8,ATEEKVCMVCKKKIGNSAFARYPN [I1A],2.97
9,TTEEKVCMVCKKKIGNSAFARYPN [I1T],2.88
10,NTEEKVCMVCKKKIGNSAFARYPN [I1N],2.78
11,GTEEKVCMVCKKKIGNSAFARYPN [I1G],3.1
12,VTEEKVCMVCKKKIGNSAFARYPN [I1V],2.95
13,LTEEKVCMVCKKKIGNSAFARYPN [I1L],2.5
14,STEEKVCMVCKKKIGNSAFARYPN [I1S],2.59
15,DTEEKVCMVCKKKIGNSAFARYPN [I1D],3.39
16,PTEEKVCMVCKKKIGNSAFARYPN [I1P],2.35
17,ETEEKVCMVCKKKIGNSAFARYPN [I1E],3.18
18,RTEEKVCMVCKKKIGNSAFARYPN [I1R],2.13
19,FTEEKVCMVCKKKIGNSAFARYPN [I1F],2.67
20,KTEEKVCMVCKKKIGNSAFARYPN [I1K],2.6
21,MTEEKVCMVCKKKIGNSAFARYPN [I1M],2.2
22,ITEQKVCMVCKKKIGNSAFARYPN [E4Q],2.38
23,ITEPKVCMVCKKKIGNSAFARYPN [E4P],2.39
24,ITEAKVCMVCKKKIGNSAFARYPN [E4A],1.47

row,Variant,protein stability index
1,ITELKVCMVCKKKIGNSAFARYPN [E4L],2.09
2,ITEKKVCMVCKKKIGNSAFARYPN [E4K],1.86
3,ITEDKVCMVCKKKIGNSAFARYPN [E4D],2.94
4,ITESKVCMVCKKKIGNSAFARYPN [E4S],1.74
5,ITEIKVCMVCKKKIGNSAFARYPN [E4I],2.06
6,ITEVKVCMVCKKKIGNSAFARYPN [E4V],1.91
7,ITEGKVCMVCKKKIGNSAFARYPN [E4G],1.5
8,ITENKVCMVCKKKIGNSAFARYPN [E4N],2.12
9,ITERKVCMVCKKKIGNSAFARYPN [E4R],2.15
10,ITECKVCMVCKKKIGNSAFARYPN [E4C],1.57
11,ITEHKVCMVCKKKIGNSAFARYPN [E4H],1.82
12,ITEFKVCMVCKKKIGNSAFARYPN [E4F],1.77
13,ITEMKVCMVCKKKIGNSAFARYPN [E4M],2.57
14,ITEYKVCMVCKKKIGNSAFARYPN [E4Y],2.15
15,ITETKVCMVCKKKIGNSAFARYPN [E4T],1.83
16,ITEEKFCMVCKKKIGNSAFARYPN [V6F],2.39
17,ITEEKGCMVCKKKIGNSAFARYPN [V6G],1.38
18,ITEEKYCMVCKKKIGNSAFARYPN [V6Y],2.52
19,ITEEKCCMVCKKKIGNSAFARYPN [V6C],1.95
20,ITEEKTCMVCKKKIGNSAFARYPN [V6T],2.3
21,ITEEKECMVCKKKIGNSAFARYPN [V6E],2.8
22,ITEEKKCMVCKKKIGNSAFARYPN [V6K],2.95
23,ITEEKQCMVCKKKIGNSAFARYPN [V6Q],2.48
24,ITEEKHCMVCKKKIGNSAFARYPN [V6H],2.65

row,Variant,protein stability index
1,ITEEKACMVCKKKIGNSAFARYPN [V6A],1.83
2,ITEEKLCMVCKKKIGNSAFARYPN [V6L],2.21
3,ITEEKNCMVCKKKIGNSAFARYPN [V6N],3.42
4,ITEEKWCMVCKKKIGNSAFARYPN [V6W],1.62
5,ITEEKMCMVCKKKIGNSAFARYPN [V6M],2.81
6,ITEEKDCMVCKKKIGNSAFARYPN [V6D],3.48
7,ITEEKPCMVCKKKIGNSAFARYPN [V6P],2.88
8,ITEEKICMVCKKKIGNSAFARYPN [V6I],3.18
9,ITEEKRCMVCKKKIGNSAFARYPN [V6R],2.44
10,ITEEKSCMVCKKKIGNSAFARYPN [V6S],3.06
11,ITEEKVCQVCKKKIGNSAFARYPN [M8Q],3.22
12,ITEEKVCYVCKKKIGNSAFARYPN [M8Y],1.94
13,ITEEKVCRVCKKKIGNSAFARYPN [M8R],2.39
14,ITEEKVCAVCKKKIGNSAFARYPN [M8A],2.91
15,ITEEKVCFVCKKKIGNSAFARYPN [M8F],3.02
16,ITEEKVCNVCKKKIGNSAFARYPN [M8N],2.92
17,ITEEKVCKVCKKKIGNSAFARYPN [M8K],3.11
18,ITEEKVCPVCKKKIGNSAFARYPN [M8P],2.64
19,ITEEKVCVVCKKKIGNSAFARYPN [M8V],3.23
20,ITEEKVCGVCKKKIGNSAFARYPN [M8G],2.64
21,ITEEKVCHVCKKKIGNSAFARYPN [M8H],2.31
22,ITEEKVCDVCKKKIGNSAFARYPN [M8D],2.95
